Results reported in PMC3581539, “Biochemical and Mutational Analysis of a Novel Nicotinamidase from Oceanobacillus iheyensis HTE831” (PLoS ONE, 2013).
Each block holds one molecule with its values, some of them ahead of it.

Columns and labels:
NC(=O)c1cccnc1 = experiment: steady-state kinetics (Km), GDH-coupled spectrophotometric assay; assay type: biochemical, Oceanobacillus iheyensis; conditions: Zn2+ active site
NC(=O)c1cnccn1 = experiment: as above; assay type: biochemical, Oceanobacillus iheyensis
nicotinamidase (OiNIC) = target: T1, nicotinamidase (OiNIC) (Oceanobacillus iheyensis, UniProt Q8ESQ6)
T1 construct: gene OB0565
T1 sequence (Q8ESQ6 1-183): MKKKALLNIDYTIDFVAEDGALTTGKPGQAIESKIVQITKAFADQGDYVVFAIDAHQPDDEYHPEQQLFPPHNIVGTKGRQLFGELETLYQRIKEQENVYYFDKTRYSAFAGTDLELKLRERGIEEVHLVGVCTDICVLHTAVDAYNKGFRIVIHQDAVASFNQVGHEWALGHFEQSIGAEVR

[1] = substrate: NC(=O)c1cccnc1; experiment: steady-state kinetics (Km), HPLC and GDH-coupled assay; assay type: biochemical, Oceanobacillus iheyensis; conditions: Zn2+ active site
[2] = substrate: COC(=O)c1cccnc1; experiment: steady-state kinetics (Km), HPLC; assay type: biochemical, Oceanobacillus iheyensis; conditions: Zn2+
[3] = substrate: CCOC(=O)c1cccnc1; experiment: steady-state kinetics (Km), HPLC; assay type: biochemical, Oceanobacillus iheyensis; conditions: Zn2+
[4] = substrate: NC(=O)c1cnccn1; experiment: steady-state kinetics (Km), GDH-coupled spectrophotometric assay; assay type: biochemical, Oceanobacillus iheyensis; conditions: Zn2+ active site
[5] = substrate: Cc1cncc(C(N)=O)c1; experiment: as above; assay type: biochemical, Oceanobacillus iheyensis; conditions: Zn2+

Molecule: nicotinamidase (OiNIC) (Oceanobacillus iheyensis HTE831; E65H)
- Km (NC(=O)c1cccnc1): 130 ± 10 µM
- kcat (NC(=O)c1cccnc1): 5.63 ± 0.2 s⁻¹
- kcat/Km (NC(=O)c1cccnc1): 42600 M⁻¹ s⁻¹

Molecule: nicotinamidase (OiNIC) (Oceanobacillus iheyensis HTE831; C133A)
- Km (NC(=O)c1cnccn1; Zn2+ active site): 360 ± 20 µM
- kcat (NC(=O)c1cnccn1; Zn2+ active site): 3.31 ± 0.1 s⁻¹
- kcat/Km (NC(=O)c1cnccn1; Zn2+ active site): 9190 M⁻¹ s⁻¹

- Ki (nicotinamidase (OiNIC)): 3.4 µM
Molecule: O=Cc1cccnc1 [nicotinaldehyde]

Molecule: nicotinamidase (OiNIC) (Oceanobacillus iheyensis HTE831; F69W)
- Km (NC(=O)c1cnccn1; Zn2+ active site cavity): 500 ± 20 µM
- kcat (NC(=O)c1cnccn1; Zn2+ active site cavity): 3.94 ± 0.1 s⁻¹
- kcat/Km (NC(=O)c1cnccn1; Zn2+ active site cavity): 7900 M⁻¹ s⁻¹

B1: nicotinamidase (OiNIC) (Oceanobacillus iheyensis HTE831) (protein)
chain: MKKKALLNIDYTIDFVAEDGALTTGKPGQAIESKIVQITKAFADQGDYVVFAIDAHQPDDEYHPEQQLFPPHNIVGTKGRQLFGELETLYQRIKEQENVYYFDKTRYSAFAGTDLELKLRERGIEEVHLVGVCTDICVLHTAVDAYNKGFRIVIHQDAVASFNQVGHEWALGHFEQSIGAEVR
- Km [1]: 260 ± 20 µM
- kcat [1]: 11.65 ± 0.1 s⁻¹
- kcat/Km [1]: 43500 M⁻¹ s⁻¹
- Km [2]: 1030 ± 10 µM
- kcat [2]: 0.32 ± 0.02 s⁻¹
- kcat/Km [2]: 310 M⁻¹ s⁻¹
- Km [3]: 1020 ± 10 µM
- kcat [3]: 0.1 ± 0.01 s⁻¹
- kcat/Km [3]: 100 M⁻¹ s⁻¹
- Km [4]: 810 ± 10 µM
- kcat [4]: 2.6 ± 0.1 s⁻¹
- kcat/Km [4]: 3200 M⁻¹ s⁻¹
- Km [5]: 680 ± 20 µM
- kcat [5]: 5.1 ± 0.02 s⁻¹
- kcat/Km [5]: 7500 M⁻¹ s⁻¹
